# Measured values from the supplement of paper PMC10126150.
# ± gives the standard deviation of the averaged measurements.
# Test system: ATP
# Test: switch fluorescence ratio, 500 uM ATP over buffer (Cy3 cluster intensity, sum of 5 cycles each) (fold (ratio)); higher = stronger signal-on switching upon ATP binding; sequences stand for … in TCGTCGGCAGCGTCAGATGTGTATAAGAGACAGTTTTTTTTTTTTTTTTTTTTTTTTT…TC
# Conditions: aptamer strand: ATP DNA aptamer (quencher-CACCTGGGGGAGTATTGCGGAGGAAGG + anchor), 100 nM annealed; ATP concentration: 500 uM
# Procedure, shortened: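 Clusters carrying Cy3-labelled switching strands on a modified Illumina MiSeq flow-cell were annealed to 100 nM quencher-labelled ATP aptamer and imaged in selection buffer. They were imaged again after 15 min with 500 uM ATP at 22 °C, over five buffer/ATP cycles with NaOH stripping and re-annealing in between. For each cluster, the fluorescence ratio is the summed Cy3 intensity of the target cycles divided by that of the buffer cycles, averaged per switch-domain sequence. Clusters outside 100-1000 RFU were left out.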
# 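Further: ATP exposure 15 min at 22 °C before imaging.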
row,Sequence,switch fluorescence ratio
1,AATCTAACGT,0.9937 ± 0.008
2,AATCTAGTGT,0.996 ± 0.019
3,AATCTATATT,1.01 ± 0.025
4,AATCTCGTAA,1.02 ± 0.023
5,AATCTGAAGA,0.9983 ± 0.0097
6,AATCTGGGGG,1.01 ± 0.018
7,AATCTGTGTG,0.963 ± 0.042
8,AATCTTCTAT,1.01 ± 0.024
9,AATCTTGGTT,0.959 ± 0.032
10,AATGAAAGGG,0.988 ± 0.025
11,AATGAAGAAG,1.17 ± 0.22
12,AATGAAGCTC,0.966 ± 0.051
13,AATGAAGGGG,0.987 ± 0.031
14,AATGAATGCA,1.004 ± 0.0014
15,AATGAATTCG,1 ± 0.031
16,AATGACTAAT,1.01 ± 0.017
17,AATGACTATG,0.976 ± 0.056
18,AATGAGGGCG,0.9825 ± 0.0018
19,AATGATAAGC,1.04 ± 0.028
20,AATGATTAGT,0.998 ± 0.032
21,AATGATTGAA,0.968 ± 0.023
22,AATGATTGGA,1.02 ± 0.041
23,AATGCAGTGC,1.26 ± 0.09

row,Sequence,switch fluorescence ratio
1,AATGCATCTA,0.989 ± 0.025
2,AATGCATGGG,0.989 ± 0.046
3,AATGCCCGGC,1.02 ± 0.11
4,AATGCCGGCC,1.08 ± 0.028
5,AATGCGGGGG,1 ± 0.025
6,AATGCGTTCG,0.99211 ± 0.00042
7,AATGCTCTTC,0.973 ± 0.04
8,AATGCTTGGG,1.0044 ± 8.7e-05
9,AATGGAAATT,0.996 ± 0.063
10,AATGGCCGCG,1.08 ± 0.11
11,AATGGCGGCA,1.06 ± 0.078
12,AATGGCGGGA,1.021 ± 0.0015
13,AATGGCGTAT,1.02 ± 0.029
14,AATGGCTAGG,1.01 ± 0.014
15,AATGGGAAGA,0.9987 ± 0.0043
16,AATGGGATGT,0.981 ± 0.017
17,AATGGGGATG,0.998 ± 0.058
18,AATGGGGGCG,0.9633 ± 0.0089
19,AATGGGGGCT,1.02 ± 0.022
20,AATGGGGGGG,0.998 ± 0.034
21,AATGGGGTAA,0.995 ± 0.014
22,AATGGGGTCA,0.991 ± 0.024
23,AATGGGTTGG,0.9875 ± 0.0082

row,Sequence,switch fluorescence ratio
1,AATGGTCGGC,0.996 ± 0.011
2,AATGGTCTCG,0.9842 ± 0.006
3,AATGGTGAGG,1.05 ± 0.051
4,AATGGTGGCC,1 ± 0.018
5,AATGGTGTGG,0.995 ± 0.014
6,AATGGTTTTT,0.991 ± 0.031
7,AATGTAAGGA,1.03 ± 0.065
8,AATGTAAGTT,0.975 ± 0.025
9,AATGTAGGGA,1.06 ± 0.051
10,AATGTAGTTT,0.993 ± 0.032
11,AATGTCGGGC,1.02 ± 0.022
12,AATGTCTCAG,1.014 ± 0.0091
13,AATGTCTGGG,0.9982 ± 0.0018
14,AATGTGAATG,0.992 ± 0.021
15,AATGTGACAT,0.982 ± 0.033
16,AATGTGAGCT,1.04 ± 0.043
17,AATGTGCAGT,0.9627 ± 0.0043
18,AATGTGTTGG,0.984 ± 0.025
19,AATGTTAGGA,0.974 ± 0.017
20,AATGTTGGGA,0.995 ± 0.015
21,AATGTTGGTG,0.998 ± 0.018
22,AATGTTTGTA,0.9936 ± 0.0094
23,AATTAAAAAT,0.987 ± 0.017

row,Sequence,switch fluorescence ratio
1,AATTAACGGC,1.07 ± 0.083
2,AATTAAGGCA,0.9756 ± 0.0065
3,AATTAATATT,0.988 ± 0.021
4,AATTACCTCG,1.04 ± 0.043
5,AATTAGACGA,0.958 ± 0.034
6,AATTAGATTT,1.021 ± 0.0055
7,AATTAGGGGT,1.01 ± 0.02
8,AATTAGTGTG,0.987 ± 0.022
9,AATTAGTTGC,0.989 ± 0.016
10,AATTATAATG,1.034 ± 0.0047
11,AATTATCGGC,0.998 ± 0.049
12,AATTATGTAA,0.988 ± 0.036
13,AATTATTGTA,0.979 ± 0.049
14,AATTCAGCAT,1.03 ± 0.036
15,AATTCCCTTT,0.9946 ± 0.0012
16,AATTCCTCAG,1.43 ± 0.1
17,AATTCCTCAT,1.04 ± 0.024
18,AATTCCTTGG,0.984 ± 0.034
19,AATTCTCTGT,1.03 ± 0.066
20,AATTGAACGG,0.9995 ± 0.0042
21,AATTGAAGGG,0.996 ± 0.015
22,AATTGACGTA,1.021 ± 0.0069
23,AATTGAGTGG,1.009 ± 0.0077

row,Sequence,switch fluorescence ratio
1,AATTGATAGG,0.982 ± 0.041
2,AATTGGAGGG,1 ± 0.029
3,AATTGGCTTA,0.997 ± 0.027
4,AATTGGGCGA,0.989 ± 0.026
5,AATTGGGCGC,1.01 ± 0.011
6,AATTGGGGGT,0.992 ± 0.038
7,AATTGGGTAT,1.0014 ± 0.00066
8,AATTGGGTGC,1.09 ± 0.12
9,AATTGGTCGT,0.965 ± 0.043
10,AATTGTAAGA,0.992 ± 0.025
11,AATTGTAGGT,0.9731 ± 0.0046
12,AATTGTAGTA,0.996 ± 0.051
13,AATTGTTCGT,0.98 ± 0.036
14,AATTGTTGTC,0.985 ± 0.01
15,AATTTCGCTT,1 ± 0.037
16,AATTTCTGGG,1.06 ± 0.058
17,AATTTGACCC,0.9966 ± 0.0026
18,AATTTGATTC,1.02 ± 0.058
19,AATTTGGTTT,1.02 ± 0.021
20,AATTTGTAGG,1 ± 0.02
21,AATTTGTGTT,0.992 ± 0.01
22,AATTTTAACA,1 ± 0.016
23,AATTTTACGG,1.07 ± 0.024

row,Sequence,switch fluorescence ratio
1,AATTTTAGTA,1.02 ± 0.019
2,AATTTTAGTC,0.994 ± 0.04
3,AATTTTCAGA,1.03 ± 0.019
4,AATTTTGGTG,0.998 ± 0.047
5,AATTTTTAGT,0.981 ± 0.024
6,AATTTTTCGC,0.98 ± 0.024
7,AATTTTTGAG,0.988 ± 0.024
8,AATTTTTGTT,1 ± 0.029
9,ACAAATTGTT,1.09 ± 0.069
10,ACAACCAGGA,1.737 ± 0.00071
11,ACAACCGGGG,1.37 ± 0.029
12,ACAACGCGT,0.982 ± 0.013
13,ACAAGACTTA,1.04 ± 0.018
14,ACAAGATCGG,1.0072 ± 0.00016
15,ACAAGGGAAG,0.988 ± 0.015
16,ACAAGTGGAC,1.033 ± 0.0026
17,ACAAGTGTGC,1.04 ± 0.018
18,ACAAGTTTAA,0.997 ± 0.025
19,ACAATAATAT,1 ± 0.028
20,ACAATCTCTT,1.02 ± 0.025
21,ACAATGCTTT,1.03 ± 0.017
22,ACAATTGATG,1 ± 0.04
23,ACACAGGCTA,1.027 ± 0.005

row,Sequence,switch fluorescence ratio
1,ACACAGTGCT,1 ± 0.011
2,ACACTTAAGT,1.02 ± 0.029
3,ACACTTGCCA,1.09 ± 0.019
4,ACAGAAATGG,1.014 ± 0.0011
5,ACAGACCTAA,1.14 ± 0.013
6,ACAGACTCGC,1.01 ± 0.019
7,ACAGACTGAA,1.16 ± 0.019
8,ACAGATACAG,1.07 ± 0.025
9,ACAGATGGAA,1.005 ± 0.0068
10,ACAGATGGGG,1.01 ± 0.015
11,ACAGATTAGT,1 ± 0.024
12,ACAGCAGGGC,1.07 ± 0.07
13,ACAGCTGTTA,1.02 ± 0.019
14,ACAGGACTTA,1.09 ± 0.021
15,ACAGGAGGGG,1.04 ± 0.018
16,ACAGGATACA,1.14 ± 0.078
17,ACAGGGAGGG,1.02 ± 0.015
18,ACAGGGGCGG,1.008 ± 0.006
19,ACAGGGGGAA,1.01 ± 0.024
